Literature values as cited in publication PMC2953804.

Target: Mlh1 (Saccharomyces cerevisiae) (UniProt P38920)

- Kd: 3.14 µM
Substance: Mlh1 (from UniProt P38920)
